The results in this text go back to the Immune Epitope Database (IEDB).

In assay [1] the target is HLA-A*02:01. Nature of the assay: IEDB peptide-MHC binding, purified MHC/competitive/fluorescence; ≥ and ≤ were set here for values at or beyond the usual limits of such assays.
The target of assay [2] is HLA-A*24:02. Described as above.
In assay [3] the target is HLA-B*15:01. The experiment in a line: IEDB peptide-MHC binding, purified MHC/competitive/radioactivity; filed as Kd, often an IC50 or EC50 that approximates it; ≥ and ≤ were set here for values at or beyond the usual limits of such assays.
The target of assay [4] is HLA-A*30:02. The description is as above.
Assay [5] concerns the target HLA-B*58:01. Described as above.
In assay [6] the target is HLA-B*53:01. The assay is described as above.
Assay [7] concerns the target HLA-B*57:01. The description is as above.
Assay [8] deals with HLA-A*32:01. The assay is described as above.
In assay [9] the target is HLA-A*11:01. The description is as above.
In assay [10] the target is HLA-B*27:05. Nature of the assay: IEDB peptide-MHC binding, purified MHC/direct/fluorescence; filed as Kd, often an IC50 or EC50 that approximates it; ≥ and ≤ were set here for values at or beyond the usual limits of such assays.
Assay [11] has as its target HLA-B*48:01. Described as above.
Assay [12] has as its target HLA-A*24:02. Nature of the assay: IEDB peptide-MHC binding, purified MHC/competitive/radioactivity; filed as Kd, often an IC50 or EC50 that approximates it; ≥ and ≤ were set here for values at or beyond the usual limits of such assays. To be noted: source organism: Dengue virus 1 Brazil/97-11/1997.
Assay [13] deals with HLA-A*23:01. The description is as above. To be noted: source organism: Dengue virus 1 Brazil/97-11/1997.
The target in assay [14] is HLA-A*01:01. Described as above.
In assay [15] the target is HLA-B*35:01. The description is as above.
The target of assay [16] is HLA-A*68:01. The assay is described as above.
For assay [17], the target named is HLA-A*31:01. Described as above.
For assay [18], the target named is HLA-A*33:01. The description is as above.
In assay [19] the target is HLA-A*02:01. The description is as above.
Assay [20] concerns the target HLA-B*54:01. The assay is described as above.
Assay [21] concerns the target HLA-B*08:01. Described as above. The note with it: source organism: Hepacivirus hominis.
In assay [22] the target is HLA-A*02:03. Described as above.
Assay [23] deals with HLA-A*02:06. Described as above.
The target of assay [24] is HLA-A*03:01. The assay is described as above.
Assay [25] deals with HLA-A*68:02. The assay is described as above.
Assay [26] concerns the target HLA-A*02:02. The description is as above.
Assay [27] addresses HLA-B*07:02. The assay is described as above.
The target in assay [28] is HLA-B*51:01. The description is as above.
Setting [29] is: source organism: Sudan ebolavirus.
The mark [30] stands for this setting: source organism: Zaire ebolavirus.
The mark [31] stands for this setting: source organism: Dengue virus 1 Brazil/97-11/1997.
[32] abbreviates: source organism: Dengue virus 4 Dominica/814669/1981.
Setting [33] is: source organism: Vaccinia virus WR.
The mark [34] stands for this setting: source organism: Dengue virus 2 Jamaica/1409/1983.
[35] abbreviates: source organism: Dengue virus 4 Philippines/H241/1956.
Where [36] appears, read: source organism: Dengue virus 3 Martinique/1243/1999.
[37] abbreviates: source organism: Lassa virus Josiah.
Where [38] appears, read: source organism: Mammarenavirus lassaense.
Setting [39] is: source organism: Hepacivirus hominis.

Take AFSMPLGVV: the IC50 in [1] (setting [29]) came to 8990 nM; in [2] (setting [29]) it was 2820 nM.
Sequence ANAGQFLSF came in with a concentration for half-maximal inhibition (IC50) in assay [2] (setting [30]) of 578 nM.
Take AVLMLVAHY: the Kd turned out to be 51.2 nM in assay [3] (setting [31]) and 2.19 nM in assay [4] (setting [31]).
For FDAVLYYHM, the IC50 in assay [1] (setting [30]) was at least 309000 nM; in assay [2] (setting [30]), 12000 nM.
On to FGSVGGLFTS, for which the Kd in [5] (setting [32]) was determined as 220 nM.
For FIIKSSYVF, the dissociation constant (Kd) in assay [3] (setting [33]) came out at 3.23 nM.
Regarding FITDNVHTW, the Kd in assay [5] (setting [34]) is 17.5 nM; in assay [6] (setting [34]), 88.7 nM.
As for FVVDNVHTW, the figures for the Kd in assay [5] (setting [32]) and in assay [6] (setting [32]) were 106 nM and 8.45 nM, respectively.
With GAAFSGVSW, the Kd in [5] (setting [34]) was 126 nM; in assay [7] (setting [34]), 22.8 nM.
For GSSKIRWIVE, the Kd in assay [7] (setting [35]) was determined as 868 nM; in assay [8] (setting [35]), 2260 nM.
In the case of GSSPIIEVKQ, the Kd in assay [7] (setting [35]) turned out to be 17000 nM.
As to GTSADLTVEK, the Kd in [7] (setting [36]) came to 3510 nM; in [9] (setting [36]), 219 nM.
For IQAFEAGVD, the IC50 in assay [1] (setting [30]) was at least 210000 nM; in assay [2] (setting [30]), 32900 nM.
With ISSTPFAEYT, the Kd in assay [5] (setting [35]) worked out at 2050 nM.
IWMAPSLTE showed an IC50 in [2] (setting [30]) of 256 nM.
KAIKILTGF: the figures for the Kd in assay [5] (setting [35]) and in assay [7] (setting [35]) were 22.4 nM and 66.7 nM, respectively.
As to KATREAQKRA, the Kd worked out at 10700 nM in assay [5] (setting [34]) and 847 nM in assay [7] (setting [34]).
Regarding KFRKSSFFV, the IC50 was found to be 7760 nM in assay [1] (setting [29]) and 449 nM in [2] (setting [29]).
For the sequence KLHSGKDVF, the Kd in [3] (setting [31]) worked out at 4.82 nM.
For KLRQIVAYF, the Kd in assay [3] (setting [33]) was 7.59 nM.
As to KQAKAPESK, the figures for the Kd in assay [10] (setting [37]) and in assay [11] (setting [37]) were 704 nM and at least 20000 nM, respectively.
With KRASPILRF, the values for the Kd in [10] (setting [38]) and in assay [11] (setting [38]) were 87 nM and at least 20000 nM, respectively.
With LGFMNEDHW, in assay [7] (setting [31]), the Kd came to 26.2 nM.
For the sequence LGKAVHQVF, the Kd in assay [3] (setting [35]) came to 477 nM.
LMLLPTALAF: the Kd in [3] (setting [31]) turned out to be 0.82 nM; in assay [12] it was 4450 nM; in [6] (setting [31]), 15600 nM; in assay [13], 72.9 nM.
For the sequence LSIPPTAGI, the dissociation constant Kd in assay [5] (setting [35]) was determined as 24.1 nM.
As for LSRNSTHEMY, the Kd stood at 48.2 nM in assay [3] (setting [36]), 32.2 nM in [4] (setting [36]) and 291 nM in assay [14] (setting [36]).
LTSTWVMYGT: the Kd was 663 nM in assay [5] (setting [32]) and 2540 nM in [7] (setting [32]).
Consider MAILGDTAW, for which the dissociation constant (Kd) in assay [5] (setting [34]) is 3.34 nM; in assay [15] (setting [34]) it was 33.1 nM; in [6] (setting [34]), 9.79 nM; in assay [7] (setting [34]) it was 22.6 nM.
With MIKNLTQLF, the Kd in assay [3] (source organism: Vaccinia virus Copenhagen) was 5.71 nM.
Turning to MLAVWNRVW, the Kd amounted to 113 nM in assay [5] (setting [34]) and 20.6 nM in assay [7] (setting [34]).
With MTTTANWLW, the dissociation constant Kd in assay [5] (setting [35]) was 1.05 nM; in [6] (setting [35]), 2.5 nM; in assay [7] (setting [35]) it was 1.62 nM.
Take NIREIEEHM: the Kd in assay [3] (setting [33]) amounted to 234 nM.
Consider PATLFVWYFW, for which the figures for the Kd in assay [5] (setting [31]), in assay [7] (setting [31]) and in [8] (setting [31]) were 9290 nM, 169 nM and 15500 nM, respectively.
Regarding PVVLTGGTG, the IC50 in assay [1] (source organism: Variola virus) was at least 167000 nM; in [2] (source organism: Variola virus) it was 69800 nM.
Turning to QSSSMRKTDW, the Kd in [5] (setting [36]) came to 75.8 nM; in assay [7] (setting [36]) it was 151 nM.
In the case of RNWAHSSL, the Kd in [16] (setting [39]) is at least 87900 nM; in assay [17] (setting [39]), 17800 nM; in assay [18] (setting [39]) it was at least 87600 nM; in assay [19] (setting [39]), at least 69400 nM; in assay [20] (setting [39]) it was at least 87700 nM; in assay [21] it was at least 67500 nM. Also, the Kd is at least 87700 nM in assay [22] (setting [39]); at least 58300 nM in assay [23] (setting [39]); at least 87800 nM in [15] (setting [39]); at least 87300 nM in assay [24] (setting [39]); at least 69800 nM in [25] (setting [39]); at least 70000 nM in assay [26] (setting [39]). The Kd in assay [27] (setting [39]) is at least 57400 nM; in assay [28] (setting [39]), at least 51200 nM; in [6] (setting [39]), at least 49500 nM; in assay [9] (setting [39]), at least 87000 nM; in [14] (setting [39]) it was 2200 nM.
RSLIGNEEF: the Kd is 15.4 nM in assay [5] (setting [36]) and 4650 nM in assay [8] (setting [36]).
Take RTSWALCEAL: the Kd in [7] (setting [36]) is 1710 nM.
On to RVIQLSRKTF, for which the Kd in assay [3] (setting [31]) was 45.2 nM; in [13] it was 3290 nM.
For the sequence RVMVMVGATM, the values for the Kd in assay [3] (setting [34]) and in [27] (setting [34]) were 2.14 nM and 61.5 nM, respectively.
On to SASSMVNGVV, for which the results for the Kd in [5] (setting [34]), in [25] (setting [34]) and in assay [7] (setting [34]) were 2040 nM, 10.2 nM and 227 nM, respectively.
Turning to SINNIDPHF, the Kd in [3] (setting [33]) was 12 nM.
On to TLAAMPEEE, for which, in assay [2] (setting [30]), the IC50 was determined as 10000 nM.
Consider TQVGTLALSL, for which the Kd in [3] (setting [35]) was determined as 57.2 nM.
Turning to TVLGLGLSLK, the Kd in assay [16] (setting [33]) was 73.6 nM; in assay [17] (setting [33]), 898 nM; in [18] (setting [33]), 14400 nM; in [19] (setting [33]), at least 69400 nM; in assay [20] (setting [33]), at least 69900 nM; in assay [22] (setting [33]) it was at least 70400 nM. The Kd is at least 51200 nM in assay [23] (setting [33]); at least 24000 nM in [15] (setting [33]); 19.3 nM in assay [24] (setting [33]); at least 69800 nM in [25] (setting [33]); at least 61300 nM in assay [26] (setting [33]); at least 69600 nM in assay [27] (setting [33]). The Kd in [28] (setting [33]) was at least 61800 nM; in [6] (setting [33]), at least 69900 nM; in assay [9] (setting [33]) it was 1.61 nM.
In turn, VGVNTQETI came in with an IC50 in assay [2] (setting [29]) of 7560 nM.
Turning to VSSVNTTSKM, the values for the Kd in [5] (setting [35]) and in assay [7] (setting [35]) were 1450 nM and 12100 nM, respectively.
